Drawing on paper PMC4388618, this text covers Km and kcat for one protein.

Substrate in this series: [H][C@@]12COP(=O)(O)O[C@@]1([H])[C@@H](O)[C@H](n1cnc3c(=O)[nH]c(N)nc31)O2
Description: cyclic nucleotide phosphodiesterase assay kit. The format is biochemical, Drosophila melanogaster.

B1: Prune (Pn) (Drosophila melanogaster) (protein)
chain: MCFLRFLAQARGTLGRHLAEASPVAWAAAPDVSGRKLHLVMGNESCDLDSAVSAVTLAFVYAQRHREHDYVPILNIPRRDYPLKTEVGHLFVKCGIAEPVLLFRDDIPREVVQDVNVILVDHHVSPLAPNVTEILDHRPLEDSSPSFKQLPTLCQLDIDASVGSCATLVAQRYLAEDQPRSTSVAQLLHATIVLDTINFAPAAKRYGPKDEAMVQKLESELNRKDAQRSSLFDELVAARADISKLTLTEVLRKDMKVLQTDRQVVPLAGMPILVRDFVEKSGAEKAVREFGVESNLLVILGMYVSPADGQVQRDLALISLSGQGQFVQRVQQALMESNDPKLELRPHEVDTRFMGGCFLRQHNVQATRKHILPIVKRALLEWEADHACDCDEVYFFKEKPQLGLS
Consider B1, for which the Km was found to be 17.97 ± 10.78 µM and the kcat amounted to 0.00123 ± 0.00014 s⁻¹.

What is called Km is the concentration of substrate that gives half-maximal velocity. For orientation: kcat means the number of substrate molecules converted per active site and unit of time at saturation.
